First the molecules themselves.
B1: SEQ ID No 1: anti-fungal protein of about 7 kDa from sugar beet leaf intercellular washing fluid, peak 3.1 in FIG. 3 (protein)
chain: ITCGLVASKLAPCIGYLQGAPGPSAGCCGGIKGLNSAAASPADRKTACTCLKSAATSIKGINYGKAASLPRQCGVSVPYAISPNTNCNAIH
B2: SEQ ID No 2: anti-fungal protein of about 7 kDa from sugar beet leaf intercellular washing fluid, peak 3.2 in FIG. 3 (protein)
chain: B1 chain with I58M, V77I

Positions count from the first letter of the chain named.

The test system of this assay is C. beticola. Description: micro-titre plate bioassay of fungal growth inhibition. It is filed as cell-based. To be noted: spores of C. beticola, 96 well micro-titre plates, absorbance at 620 nm; FIGS. 4 and 7: 10 ug protein. The protocol:
The thus obtained IWF is fractionated by cation exchange chromatography on a 10 ml CM-Sepharose column (Pharmacia LKB) pre-equilibrated in starting buffer (20 mM HAc (pH 4.5)). The fractionation is performed at 4° C. at a flow rate of 25 ml/h. Fractions of 3 ml are collected. Proteins not bound to the column are removed by extensive washing of the column with starting buffer. Bound proteins are eluted by applying to the column further starting buffer comprising stepwise increased salt concentrations: viz, 0.1 M NaCl, 0.3 M NACl and 0.5 M NaCl. The absorbance at 280 nm of the eluate is measured, and fractions judged to comprise protein are tested for their anti-fungal activity against C. beticola using the microtiter plate bioassay described previously (PCT Patent Application No. PCT/DK92/00108, Publication No. WO 92/17591, now assigned to Sandoz LTD). […] The inhibition of fungal growth is measured in 96 well micro-titre plates at 620 nm, essentially as described in WO 92/17591. […] The proteins, either alone or in combination with WIN N (which is purified from barley grain or stressed barley leaf as described by Hejgaard et al (FEBS Letters, 307, 389-392 (1992)), and/or a protein having a sequence corresponding to at least one of those given in SEQ ID Nos. 4-6, are incubated with spores of C. beticola. The assay mix (240 ul) contains 100 ul of potato dextrose broth (Difco), 40 ul protein sample (or buffer control) in 100 mM Tris and 20 mM NaCl (pH 8.0) as well as approximately 400 spores in 100 ul water. The micro-titre plates are sealed with tape to avoid evaporation and contamination and subsequently incubated at room temperature on an agitator operated at 200 rpm. The absorbance at 620 nm is measured each day for 8 days and plotted for each concentration of protein vs time.
“SEQ ID No 3: anti-fungal protein of 2.5-3 kDa from sugar beet leaf intercellular washing fluid, peaks 1 and 2 in FIG. 6 (SGECNMYGRCPPGYCCSKFGYCGVGRAYCG)”: the “anti-fungal activity (inhibition of fungal growth)” value was “significant anti-fungal activity”.
In the case of B1, the “anti-fungal activity (inhibition of fungal growth)” value was “significant anti-fungal activity”.
Then B2, with “significant anti-fungal activity”.

The values are drawn from patent publication US6218508A, “Anti-microbial proteins” (Novartis AG, priority 1993, dated 2001).
